Measurements reported in patent US20210008166A1 (SPECTRUM PHARMACEUTICALS, published 2021).
Each block holds one molecule with its values, some of them ahead of it.

Experiments:
[1] = target: GLP-1R on CHO cells (CHO/GLP-1R); experiment: cell-based or functional assay
[2] = target: T1, Chinese hamster ovary (CHO) cell-derived soluble recombinant human G-CSF receptor (R&D Systems, 381-050/CF) (human, UniProt Q99062 25-627); experiment: SPR (BIAcore 3000), receptor amine-coupled to CM5 chip, analyte 6.25-100 nmol/L, 25 C, 1:1 Langmuir fit
T1 construct: extracellular domain; Bought and amine-coupled to a CM5 chip; also called soluble human G-CSF receptor
T1 sequence (looked up): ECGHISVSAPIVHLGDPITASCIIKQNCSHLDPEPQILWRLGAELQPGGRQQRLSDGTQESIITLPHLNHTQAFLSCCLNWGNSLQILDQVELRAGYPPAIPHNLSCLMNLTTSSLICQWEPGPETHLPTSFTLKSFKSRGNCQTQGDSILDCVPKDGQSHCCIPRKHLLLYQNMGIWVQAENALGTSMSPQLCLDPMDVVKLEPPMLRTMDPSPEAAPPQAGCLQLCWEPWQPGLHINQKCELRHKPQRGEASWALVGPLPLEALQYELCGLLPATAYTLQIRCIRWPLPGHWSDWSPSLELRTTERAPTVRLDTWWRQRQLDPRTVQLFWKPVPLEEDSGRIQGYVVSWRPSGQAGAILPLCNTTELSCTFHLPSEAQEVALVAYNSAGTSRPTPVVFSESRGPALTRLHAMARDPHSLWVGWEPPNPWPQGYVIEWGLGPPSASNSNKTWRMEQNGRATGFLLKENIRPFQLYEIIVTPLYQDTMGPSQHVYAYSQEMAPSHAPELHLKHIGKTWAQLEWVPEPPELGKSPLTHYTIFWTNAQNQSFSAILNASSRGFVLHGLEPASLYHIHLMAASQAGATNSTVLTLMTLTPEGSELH
Text: Surface plasmon resonance technology and the BIAcore 3000 biosensor (GE healthcare) were employed to measure in vitro binding affinity to the G-CSF receptor. Amine-coupling chemistry was used to immobilize the G-CSF receptor on CM5 biosensor chip. […] The CM5 sensor chip surface was activated by injecting a 1:1 mixture of 0.1 mol/L N-hydroxysuccinimide (GE healthcare) and 0.1 mol/L 3-(N,N-dimethylamino)propyl-N-ethylcarbodiamide (GE Healthcare). […] The chip surface was then blocked with ethanolamine/HCl (GE Healthcare), pH 8.5, and washed with a regeneration solution (50 mmol/L NaCl; 5 mmol/L NaOH). […] Binding affinity was calculated using the 1:1 Langmuir fitting model for each test material.

[3] = target: T2, Fc fragment of eflapegrastim (human, UniProt P01861 107-325 = IgG part, aglycosylated (manufactured from recombinant E. coli cells)); experiment: ELISA with GST-FcγRIIB, anti-GST detection
T2 construct: Unconjugated Fc carrier tested alongside eflapegrastim; also called aglycosylated human IgG4 Fc fragment; immunoglobulin Fc region (IgG4)
T2 sequence (P01861 other isoform, or with tags, fused parts or gaps limits assumed): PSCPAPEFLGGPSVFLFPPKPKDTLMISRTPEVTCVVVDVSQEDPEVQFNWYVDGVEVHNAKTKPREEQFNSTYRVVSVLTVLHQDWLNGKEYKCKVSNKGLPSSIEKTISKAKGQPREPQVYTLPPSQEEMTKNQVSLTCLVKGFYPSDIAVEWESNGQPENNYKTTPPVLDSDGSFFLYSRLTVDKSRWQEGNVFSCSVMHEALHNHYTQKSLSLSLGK
Procedure: For C1q, FcγRIIB, FcγRIIIA, and FcRn binding assays, serial dilutions of the test materials were added to 96-well microplates coated with C1q, or GST fusion proteins of FcγRIIB or FcγRIIIA, or FcRn αβ2. After incubation and washing, HRP-conjugated anti-C1q antibody was added for C1q binding assay, and rabbit-anti-GST antibody and HRP-conjugated anti-rabbit IgG antibody were sequentially added for FcγRIIB, FcγRIIIA, and FcRn binding assays. The absorbance was measured at 450 nm as described above for FcγRI binding assay.

Molecule: CA Exendin (lysine)-PEG-(lysine) Fc (Fc fusion)
- % vs. Experimental group [1]: 16.1%
- EC50 (ng/ml), in vitro activity [1]: 590 ng/mL

B2: GST fusion protein of FcγRIIB (receptor, UniProt P31994 43-217, looked up)
chain: TPAAPPKAVLKLEPQWINVLQEDSVTLTCRGTHSPESDSIQWFHNGNLIPTHTQPSYRFKANNNDSGEYTCQTGQTSLSDPVHLTVLSEWLVLQTPHLEFQEGETIVLRCHSWKDKPLVKVTFFQNGKSKKFSRSDPNFSIPQANHSHSGDYHCTGNIGYTLYSSKPVTITVQAP
notes: not shown: GST
- binding result [3]: no binding

Next, values leading:

- potency relative to the isomer linked at another position of Fc [1]: 6 times
Molecule: CA Exendin (lysine)-PEG-(N-terminus) Fc - Experimental group (Fc fusion)

- Kd [2]: 2.9 nM
B1: Pegfilgrastim (Neulasta) (ligand, UniProt P09919-2 31-204, looked up)
chain: TPLGPASSLPQSFLLKCLEQVRKIQGDGAALQEKLCATYKLCHPEELVLLGHSLGIPWAPLSSCPSQALQLAGCLSQLHSGLFLYQGLLQALEGISPELGPTLDTLQLDVADFATTIWQQMEELGMAPALQPTQGAMPAFASAFQRRAGGVLVASHLQSFLEVSYRVLRHLAQP
modifications: 20 kDa polyethylene glycol on the N-terminal methionine residue
notes: Commercial product
